Measured values from patent US7166454 (dated 2007).
Where no end group is shown, it is not given here.

Target: T1, refolded processed β-secretase (BACE) (human, UniProt P56817 43-454, limits assumed)
T1 construct: The processed preparation is an equimolar mixture of two species, LRLPRE; It is C-terminally truncated and lacks the transmembrane domain; It is not glycosylated; also called mamapsin 2
Test: X-ray structure coordinates of the complex

T1 sequence (P56817 43-454 limits assumed): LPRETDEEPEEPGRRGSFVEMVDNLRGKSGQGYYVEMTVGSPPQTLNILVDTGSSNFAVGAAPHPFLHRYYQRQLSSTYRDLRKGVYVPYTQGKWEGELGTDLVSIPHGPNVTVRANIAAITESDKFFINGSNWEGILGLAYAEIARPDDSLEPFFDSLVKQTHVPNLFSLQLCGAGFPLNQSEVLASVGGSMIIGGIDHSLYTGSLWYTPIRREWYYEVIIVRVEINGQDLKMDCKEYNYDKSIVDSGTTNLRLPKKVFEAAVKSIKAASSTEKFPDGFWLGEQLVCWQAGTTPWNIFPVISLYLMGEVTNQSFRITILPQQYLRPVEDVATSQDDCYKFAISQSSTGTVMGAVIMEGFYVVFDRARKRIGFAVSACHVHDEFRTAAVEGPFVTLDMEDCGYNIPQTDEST

B1: OM-99-2 (peptide)
peptide: EVNLAAEF
modifications: also: L4-A5 as hydroxyethylene isostere (2R,4S,5S)-5-amino-4-hydroxy-2,7-dimethyl-octanoyl
notes: also called Bachem catalog # H-5108
binding result: binds
